Data reported in the nanobody polyreactivity screen of Harvey et al. (2022).

Experiment: yeast display, Sf9 membrane polyspecificity reagent, FACS + sequencing; frameworks hold sequencing errors
Outline: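 Synthetic nanobody libraries on Saccharomyces cerevisiae BJ5465 were galactose-induced for 36–48 hours, stained 1 hour at 4 °C with 10% biotinylated, detergent-solubilized Sf9 membrane reagent and enriched on streptavidin microbeads. FACS then separated cells into low and high (top ~1%) gates by anti-HA (expression) and streptavidin (reagent binding) fluorescence. Genes were colony-PCR amplified, MiSeq 2 × 250 sequenced and CDR-length filtered. A clone's polyreactivity label is that of its gate of origin.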

Row | Sequence | polyreactivity (PSR sort gate)
1 | QVQLVDSGGGLVQAGGSLRLSSAASGRIFNRYAMGWYRQAPGKERELVAAITRGTRTNYADSVKGRFTISRDNAKNTVYLQMNSLKPEDTAVYYCAAAYGRGSDSDYWGQGTQVTVSS | high polyreactivity
2 | QVQLVESGGGLDQAGGSLRLSCAASGRTFYANPMGWYRQAPGKQRELVAAIRRSGGRTYYADSVKGRFTISRDNAKNTVYLQMNSLKPEDTAVYYCATARYRAEMGYWGQGTQVTVSS | high polyreactivity
3 | QVQLVESGGGLVQAGGSLRLSCAASGSTCERYAMGWSRQAPGKERELVAVISYRGTSTYYADSVKGRFTISRDNAKNTVYLQMNSLKAEDTAVYDCAAEPYRTVTAYRYSLYWYNYWGQGTQVTVSS | high polyreactivity
4 | QVQLVESGGGLVQAGGSLRLSCAASGSSFHTYAMGWYRQAPGKERELVAAINRRTGGTYYADSVKGRFTISRDNAKTTVYLQMNSLKPEDTAVYYCATDWFSYRGGIFDSWGQGTQVTVSS | low polyreactivity
5 | QVQLVESGGGLVQAGGSLRLSCAASGSIFYRNAMGWYRQAPGKERELVAAISWSGASTYYADSVKGRFTISRDNAKNTVFLQLNSLKPEDTAVYYCATDDFWNVKFYAYYPEFDYWGQGTQVTVSS | low polyreactivity
6 | QVQLVESGRGLVQAGGSLRLSCAASGRIFGRNAMGWYRQAPGKESELVASITSGGGTNYADSVKGRFTISRDNAKNTVYLQMNSLKPDDTAVYDCAKQFYRPGQQSRYDYWGQGMQVTVSS | low polyreactivity
7 | QVQLVESGGGLVQAGGSLRLSCAASGSIFKAYDMGWYRPAPGKERELVAGISSSDSTYYADSVKGRFSISRDNAKNTVYLQLNSLKPEDTAVYYCAADPVFAAAYIHLYEYWGQGTQVTVSS | low polyreactivity
8 | QVQLVESGGGLVQAGRSHRLSFAASGFTLKGYAMGWYRQAPGKDRELVAAISWNGGRTYYADSVKGRFTISRDNAKNTVYLQMNSLKPEVTAVYYCAAVYRFYSPTKYTYDYWGQGTQVTVSS | high polyreactivity
9 | QVQLVESGGGLVQAGGSLRLSCAASGRTFKVYAMGWYRQAPGKERELVAAITGGGSTNYADSVKGRFTISRDNAKNTVYLQMNSLKPEDTAVYYCNARYYYRLVKWSRFSSYDYWGQGTQVTVSS | low polyreactivity
10 | QVQLVESGGGLVQAGGSLRLSCAASGITLYEYAMGWYRQAPGKERELVAAMSTSGGRTRYADSVKGRFTISRDNAKNTVYLQMNSLKPEDTAVYYCNRLYGPGFKSVYGYDYWGQGTQVTVSS | high polyreactivity
11 | QVQLVESGGGLVQAGGSLRLSCAASGRIFDGNAMGWYRQAPGKERELVAAISSRGARTYYADSVKGRFTISRDNAKNTVYLQMNSLKPEDTAVYYCNKDLDSLSGAEYDYWGQGTQVTVSS | high polyreactivity
12 | QVQLVESGGGLVQAGGSLRLSCAASGSTFSHNAMGWYRQAPGKERELVAAISSDGTTYYADSVKGRFTISRDNAKNTVYLQMNSLKPEDTAVYYCNKTRWTQRTSFDYWGQGTQVTVSS | low polyreactivity
13 | QVQLEESGGAIVQAAGSLRLSCAASGLIFAWYALGWYRPAPGKERELVATISWNGDRTYYADSVKGRFTISRDNAKNTVYLQMNSLKPEDTAVYYCAARFGSGFNYWGKGTQVTVSS | high polyreactivity
14 | QVQLQESGGGLVQAGGSLRLSCAASGSIFHLHIMCWYRQAPGKESESVAAISYGTSTYYADSVKGRFTICRDNAKNTVYLQMNSPKPDDTAVYYCAALFLVSKHHHYWGEGTQVTVSS | low polyreactivity
15 | QVQLVESVGGLVQAGGSLRLSCAASGSTYPYYAMGWYRQAPGKERELVAASTSGGSTNYADSVKGRFTISRDNAKNTVYLQMNSLKPEDTSVYYCATDWSVDLWTWYYYWGQGTQVTVSS | high polyreactivity
16 | QVQLVESGGGLVQAGGSLRLSCAASGFIFRAYAMGWYRQAPGKERELVAAISRSGSRTYYADSVKGRFTISRDHAKNTVYLQMNSLKPEDTAVYYCAADHGSLLYDYWGQGTQVTVSS | high polyreactivity
17 | QLQLVESGGGLVQAGGSLRLSCAASGRIFKEYAMGWYRQAPGQERELVAAISWRGGSTYYADSVKGRFTISRDNAKNTVNLQMNSLKPEDTAVYYCARVVSRNTHPYYHWGQVTQVTVSS | low polyreactivity
18 | QVQLEESGGRLVQAGGSLRLSCAASGSIFALYAMGWYRQAPGKERELVAAIDWSDGGTYYADSVKGRFTISRDNAKNTLYLQMNSLKPEDTAVYYCNRVYSTSRITQYEFDYWGQGTQVTVSS | low polyreactivity
19 | QVQLVESVRGLVQAGGSLRVSCAASGRTFIVYAMGWYRQAPGKERELVAGITRGSTKYADSVKGRFTISRDNAKNTVYLQMNSLKPEDTAVYYCAGRSSRRGPISEGDYWGQGTQVTVSS | high polyreactivity
20 | QVQLVESGGGLVQAGGSLRLSCAASGSTFRLYAMGWYRQAPGKERELVAVISRSGGRTYADSVKGRFTISRDNAKNTVYLQMNSLKPEDTAVYYCAKARHKSPTYTHDSWGQGTQVTVSS | high polyreactivity
21 | QVQRVDSGGGLVQAGGSLRLSCAASGFTFAVYAMGWYRQSPGKERELVAAISRSGTRTYYADSVKGRFTISRDNAKNTVYLQMNSLKPEDTAVYYCAADKYRLGYDYWGQGTQLTVSS | low polyreactivity
22 | QVQLVESAGGLVQAVGSHRLSSATSGSIFSGNSMGWYRQAPGTQSELVADISQNGGRTYYADSVKGRFTISRDNAKYTVYLQINSLKPEDTGVYYCAARGWYRYGSVYYIGDYWGQGTQGTVSS | high polyreactivity

Row | Sequence | polyreactivity (PSR sort gate)
23 | QVQLVESGGGLVQAGGSLRLSCAASGRIFYGYAMGWYRQAPAKERELVAAISWRGGRTYYADSVKGRFTISRDNAKNTVYLQMNSLKPEDTAVYFCNKDFPPQGQLRNMYYWGQGTLVTVSS | high polyreactivity
24 | QAQLVESGGGLVQAGGSLRLSCAASGRTFYYYTMGWYRQAPGKERELVAAISYSGGSTSYADSVKGRFTISRDNAKNTVYLQMNSLKPEDTAVYYCNARYKYYTQRRYHYDYWGQGTQVTVSS | high polyreactivity
25 | QVQLVESGGGLVQAGGSLRLSCAASGSIFHDNAMGWYRQAPGKERELVAAINRGGSTHYADSVKGRFTISRDNAKNTVYLQMNSLKPEDTAVYYCAADGFRPEVGYWGQGTQVTVSS | low polyreactivity
26 | QVQLVESGGGLVQAGGSLRLSCAASGNIFGFNAMGWYRQAPGKERELVAAINSGGSTYYADSVKGRFTISRDNAKNTLYLQMNSLKPEDTAVYYCAAVRGKYRFGFWGQGTQVTVSS | high polyreactivity
27 | QVQLVESGGGLVQEGGSLRISCAASGFSYENNAMGRYRQAPGKERERVAGITSGGGSTYYADSVKGRFTISRDNAKNTVYLQMNSLKPEDTAVYYCNKMYTRVGFTFEYWGQGTQVTVSS | low polyreactivity
28 | QVQLVESGGGLVQAGGSLRLSCAASGRIFVGYAMGWYRQAPGKERELVAAINRSGSSTYYADSVKGRFTISRDYAKITVYLQMNSLKPEDTAVYYCNARSGNRYGPRYDYWGQGTQVTVSS | high polyreactivity
29 | QVQLVESGGGLVQAGGSLRLSCAASGFTFKFYAMGWYRQAPGKERELVAAISGSGDSTYADSVKGRFTISRDNAKNTVYLQINSLKPEDTAVYYFNGRYAGVPWWGYYSRFDYWGQVTQVTVSS | low polyreactivity
30 | QVQLVESGGGLVQAGGSLRLSCAASGRTFGRYAMGWYRQAPGKERELVAAISSSGGRTNYADSVKGRFTISRDNAKNTVYLQMNSLKPEDTAVYYCAAAGQRPYEKGDYWGQGTQVTVSS | low polyreactivity
31 | QVQLVDSGGGLVQAGGRLRLSCAASGRTFYRNAMGWDSQAPGKERELVAAITSGGSTYYADSVKGRFTISRDTAKNTGYLQMNSLKPEDTAVYYCAALRHALRYDYWGQGTQVTVSS | low polyreactivity
32 | QVQLVESGGGLVQAGGSLRFSCAASGFIFYYYDMGWYRQAPGKERELVATISRGGSTYYADSVKGRFTISRDNAKNTVYLQMNSLKPEDTAVYYCAAYRSFGYRNWNRFDYWGQGTQVTVSS | high polyreactivity
33 | QVQLVESGGGLVQAGGSLRLSCAASGRIFGWYAMGWYRQAPGKERELVAAISRGGTTYYADSVKGRFTISRDNAKNTVYLQMNSLKPEDTAVYYCAAPVPYYVPRRNEGDYWGQGTQVTVSS | low polyreactivity
34 | QVQLVESGGGLVQAGGSLRLSCAASGITFYFYAMGWYRQAPGKERELVAAITRGGRTNYADSVKGRFTISRDNAKNTVYLQMNSLKPEDTAVYYCNKRLYSYYPGKYVAEYDYWGQGTQVTVSS | high polyreactivity
35 | QVQLVESGGGLVQAGGSLRLSCAASGSIFVYNVMGWYRQAPGKERELVAAINYSGVSTYYADSVKGRFTISRDNAKNTVYLQMNSLKPEDTAVYYCAAEYEFGHSSTPMDYWGQGTQVTVSS | high polyreactivity
36 | QVQLVESGGGLVQAGGSLRLSCAASGSTFRYNAMGWYRQAPGKERELVATITGSGGSTYYADSVKGRFTISRDNAKNTVYLQMNSLKPEDTAVYYCAAAYRGRYSWYYFPRYAYWGQGTQVTVSS | high polyreactivity
37 | QDQLVESGGGLVQAGGSLRLSCAASGSTLYMYAMGWYRQAPGKERELVAAISWSDDTTYYADSVKGRFTISRDNAKNTVYLQMNSLKPEDTAVYYCNAETYYGNSFGPFSYDYWGQGTQVTVSS | low polyreactivity
38 | QVQLVESGGGLVQAGGSLRLSCAASGFTFNYNAMGWYRQAPRKERELVAAISRSGGRTYYADSVKGRFTISRDKAKNTVYLQMNSLKPADTAVYYCAADSRTNGYDYWGQGTQVTVSS | high polyreactivity
39 | QVQLVESGGGLVQAGGSLRLSCAASGFTFYNYAMGWYRQAPGKERELVAAITSSGGRTYYADSVKGRFTISRDNAKNTVYLQMNSLKPEDTAVYYCAATGFYLRGEYYYCGQGTQVTVSS | low polyreactivity
40 | QVQRVESGGGLVQAGGSLRLSCAASGRTFYLNAMGWYRQATGKERQLVAAINRGTRTYYADSVKGRFTISRDNAKNTVYLQMNSVKPEDTAVYYCAAVPRYYYSSSYTMDYWGQGTQVTVSS | high polyreactivity
41 | QVQLVESGGGLVQAGGSHRLSCAASGRIFVGYAMGWYRQAPGKERELVAGISGGGRTNYADSVKGRFTISRDNAKNTVYLQMNSLKPEDTAVYYCIAGGSVWYRSQRGWKGYYNQMDYWGQGTQVTVSS | high polyreactivity
42 | QVQLVESGGGLVQAGGSLRLSCAASGITFRYNAMGWYRQAPGKERELVAAITFSGGSTYYADSVKGRFTISRDNAKNTVNLQMNSLKPEDTAVYYCAKLGSTSSRGNYDYWGQGTQVTVSS | low polyreactivity
43 | QVQLVESGGGLVQAGGSLRLSCAASGRIFKYYAMGWYRQAPGKERELVAAITSSGVSTYADSVKGRFTISRDNAKNTVYLQMNSLKPEDTAVSYCNAADERSQGWVGCDHWGQCTQVTVSS | low polyreactivity
